T1: caspase-9 (Homo sapiens, UniProt P55211)
T1 construct: endogenous in cells; host or cells: 293T
T1 sequence (P55211 1-416): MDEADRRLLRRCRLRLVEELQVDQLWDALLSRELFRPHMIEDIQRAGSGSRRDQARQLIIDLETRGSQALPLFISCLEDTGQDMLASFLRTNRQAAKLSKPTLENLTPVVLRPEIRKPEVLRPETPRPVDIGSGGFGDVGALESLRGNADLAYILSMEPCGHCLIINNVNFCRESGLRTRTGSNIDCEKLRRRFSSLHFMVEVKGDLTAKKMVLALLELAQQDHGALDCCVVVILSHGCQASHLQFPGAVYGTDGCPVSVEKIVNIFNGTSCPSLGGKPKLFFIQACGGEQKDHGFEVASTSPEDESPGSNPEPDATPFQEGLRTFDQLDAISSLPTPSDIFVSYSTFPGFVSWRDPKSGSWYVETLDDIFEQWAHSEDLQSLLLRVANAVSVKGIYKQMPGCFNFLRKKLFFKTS

B1: Bcl2L12-ΔBH2ΔP-r: V5 tagged truncation mutant of human Bcl2L12, human amino acid sequence 1-267 (protein)
chain: MGRPAGLFPPLCPFLGFRPEACWERHMQIERAPSVPPFLRWAGYRPGPVRRRGKVELIKFVRVQWRRPQVEWRRRRWGPGPGASMAGSEELGLREDTLRVLAAFLRRGEAAGSPVPTPPRSPAQEEPTDFLSRLRRCLPCSLGRGAAPSESPRPCSLPIRPCYGLEPGPATPDFYALVAQRLEQLVQEQLKSPPSPELQGPPSTEKEAILRRLVALLEEEAEVINQKLASDPALRSKLVRLSSDSFARLVELFCSRDDSSRPSRACP
modifications: left off: small tags and cut ends
B2: R-RAS: R-RAS polypeptide over-expressed from expression vector; candidate gene of the 19q13.3 amplicon (protein, UniProt P10301 1-215, looked up)
Ras-related protein R-Ras: MSSGAASGTGRGRPRGGGPGPGDPPPSETHKLVVVGGGGVGKSALTIQFIQSYFVSDYDPTIEDSYTKICSVDGIPARLDILDTAGQEEFGAMREQYMRAGHGFLLVFAINDRQSFNEVGKLFTQILRVKDRDDFPVVLVGNKADLESQRQVPRSEASAFGASHHVAYFEASAKLRLNVDEAFEQLVRAVRKYQEQELPPSPPSAPRKKGGGCPC
B3: Bcl2L12-ΔBH2ΔP-rΔIHD: V5 tagged truncation mutant of human Bcl2L12, human amino acid sequence 1-167 (protein)
chain: MGRPAGLFPPLCPFLGFRPEACWERHMQIERAPSVPPFLRWAGYRPGPVRRRGKVELIKFVRVQWRRPQVEWRRRRWGPGPGASMAGSEELGLREDTLRVLAAFLRRGEAAGSPVPTPPRSPAQEEPTDFLSRLRRCLPCSLGRGAAPSESPRPCSLPIRPCYGLEP
modifications: left off: small tags and cut ends
B4: IRF3: IRF3 polypeptide expressed from expression vector; candidate gene of the 19q13.3 amplicon (protein, UniProt Q14653 1-427, looked up)
Interferon regulatory factor 3: MGTPKPRILPWLVSQLDLGQLEGVAWVNKSRTRFRIPWKHGLRQDAQQEDFGIFQAWAEATGAYVPGRDKPDLPTWKRNFRSALNRKEGLRLAEDRSKDPHDPHKIYEFVNSGVGDFSQPDTSPDTNGGGSTSDTQEDILDELLGNMVLAPLPDPGPPSLAVAPEPCPQPLRSPSLDNPTPFPNLGPSENPLKRLLVPGEEWEFEVTAFYRGRQVFQQTISCPEGLRLVGSEVGDRTLPGWPVTLPDPGMSLTDRGVMSYVRHVLSCLGGGLALWRAGQWLWAQRLGHCHTYWAVSEELLPNSGHGPDGEVPKDKEGGVFDLGPFIVDLITFTEGSGRSPRYALWFCVGESWPQDQPWTKRLVMVKVVPTCLRALVEMARVGGASSLENTVDLHISNSHPLSLTSDQYKAYLQDLVEGMDFQGPGES

Tests used:
[1] = system: Ink4a/Arf deficient embryonic fibroblasts; assay: Colony formation of Ink4a/Arf deficient embryonic fibroblasts; format: cell-based; details: about 300 cells per 6 well plate; vector only about 13
Method: In addition, Ink4a/Arf deficient embryonic fibroblasts were transfected with vector only or a vector encoding a Bcl2L12 polypeptide or Bcl2 polypeptide. Once the cells were transfected, the number of colonies formed in cultures (about 300 cells per 6 well plate) was determined. Expression of Bcl2L12 polypeptide promoted growth of Ink4a/Arf deficient embryonic fibroblasts. […] In a similar experiment, Ink4a/Arf deficient embryonic fibroblasts were co-transfected with a vector encoding H-RasV12 and either a vector only, vector encoding Bcl2L12 polypeptide, or a vector encoding Bcl2 polypeptide. Once the cells were transfected, the number of foci formed per transfection was determined. Expression of Bcl2L12 polypeptide or Bcl2 polypeptide in combination with H-RasV12 expression promoted growth of Ink4a/Arf deficient embryonic fibroblasts (about 1.5 to 2 fold more foci per transfection for cells expressing Bcl2L12 polypeptide or Bcl2 polypeptide compared to control pBabe cells).

[2] = system: Ink4a-/-/Arf-/- astrocytes; assay: Growth of transduced Ink4a-/-/Arf-/- astrocytes under normal and low-serum conditions; format: cell-based, mouse; details: over-expression, 10% FBS, vs vector only
From the text: The Bcl2L12-V5, R-RAS, and IRF3 nucleic acid sequences were cloned into expression vectors. Controls included expression vectors containing EGFR or Bcl2 nucleic acid sequences. The encoded polypeptides were expressed in primary astrocytes and tested for cell growth, transformation, and apoptosis activities. Primary astrocytes deficient for Ink4a/Arf (e.g., Ink4a^−/−/Arf^−/− astrocytes) were used given the prominence of this tumor suppressor lesion in advanced human gliomas. The following was performed to assess growth characteristics under normal growth conditions. Mouse Ink4a^−/−/Arf^−/− astrocytes were retro-virally transduced with pBabe vector alone; Bcl2L12-V5 nucleic acid; R-RAS nucleic acid; IRF3 nucleic acid; EGFR* nucleic acid; or Bcl2 nucleic acid. After retro-viral infection, transduced mouse Ink4a^−/−/Arf^−/− astrocytes were subjected to puromycin (2 μg/mL) selection for four days and plated at a density of 1×10^5 cells/10 cm dish using 10% FBS-DMEM medium. All transduced Ink4a^−/−/Arf^−/− astrocytes were counted each day for five days to determine cell numbers (mean±S.D.; three independent experiments with each being performed in triplicate).
The following was performed to assess growth characteristics under low-serum growth conditions. Retro-virally transduced mouse Ink4a^−/−/Arf^−/− astrocytes (1×10^6 cells/10 cm dish) were allowed to attach onto plates in 10% FBS-DMEM medium for five hours. After five hours, the medium was changed to 0.1% FBS-DMEM, and the cells were allowed to grow for three days. After three days in 0.1% FBS, the cells were counted to determine cell numbers (mean±S.D.; three independent experiments with each being performed in triplicate). The number of Ink4a^−/−/Arf^−/− astrocytes infected with pBabe-vector was set to 1.0.

[3] = system: Ink4a-/-/Arf-/- astrocytes; assay: Annexin V staining of STS-treated Ink4a/Arf deficient astrocytes (FACS); format: cell-based, mouse; details: 100 nM staurosporine one day; control cultures about 17-22 percent
Method: The following experiments were performed to determine whether the Bcl2L12 polypeptide influenced cell survival or apoptosis. Ink4a^−/−/Arf^−/− astrocytes retro-virally infected with vector alone (pBabe) or vector containing Bcl2 nucleic acid, Bcl2L12-V5 nucleic acid, R-RAS nucleic acid, or IRF3 nucleic acid were […] After this one day incubation, the cells were stained with annexin V (Roche). Annexin V-positive cells were determined by FACScan analysis (mean±S.D.; three independent experiments with each being performed in triplicate).
After STS treatment, the cells were analyzed for apoptosis by assessing annexin V binding and DNA fragmentation using a FACS based analysis.

caspase-9 = biological target: T1, caspase-9; assay: Caspase-9 in vitro cleavage and LEHDase activity assay with 293T cells; format: cell-based; details: V5 tagged constructs; vector only about 420 RFUs
From the text: To determine if Bcl2L12 polypeptides could-regulate-the activity of caspase-9, a cell-free system was used in which exogenously added dATP and cytochrome c induced the activation of [^35S] labeled in vitro translated caspase-9. […] To confirm the inhibitory effect of Bcl2L12 polypeptides on caspase-9 maturation, 293T cells ectopically expressing Bcl2L12-V5 polypeptides where either subjected to an in vitro cleavage assay or to an activity assay using the caspase-9 specific fluorogenic peptide LEHD.
In addition, vectors encoding V5 tagged wild-type human Bcl2L12 polypeptide (WT; human amino acid sequence 1-334) and three V5 tagged truncation mutants of human Bcl2L12 (Bcl2L12-ΔBH2 polypeptide, human amino acid sequence 1-310; Bcl2L12-ΔBH2ΔP-r polypeptide, human amino acid sequence 1-267; and Bcl2L12-ΔBH2ΔP-rΔIHD polypeptide, human amino acid sequence 1-167) were made (FIG. 4A). These vectors expressed the appropriately sized polypeptides when translated in vitro or when expressed in 293T cells.

[4] = system: Ink4a-/-/Arf-/- mouse embryo fibroblasts; assay: Focus formation in cooperation with activated H-Ras in Ink4a-/-/Arf-/- mouse embryo fibroblasts; format: cell-based; details: cotransfected with H-Ras G12V, vs pBabe
Method: The oncogenic potential of these genes was determined directly through their capacity to cooperate with activated H-RAS to effect the malignant transformation of primary Ink4a^−/−/Arf^−/− cells. Briefly, Ink4a^−/−/Arf^−/− mouse embryo fibroblasts (MEFs) were seeded at 8×10^5 cells/10 cm dish and grown in 10% FBS-DMEM for one day and then cotransfected with 1.5 μg of activated H-Ras^G12V and 1.5 μg of either pBabe, Bcl2, Bcl2L12-V5, R-RAS, or IRF3 nucleic acid using Lipopectamine-plus reagent (Invitrogen). One day after cotransfection, each Ink4a^−/−/ARF^−/− MEF was splitted 1:3 ratio and refed with 10% FBS-DMEM every 3-4 day for ten days. After staining cells with crystal violet solution, foci were counted to determine transformation efficiency (mean±S.D.; three independent experiments with each being done in duplicate). The numbers of foci from cells cotransfected with H-Ras^G12V and pBabe vector were set to 100%.
In addition, Ink4a/Arf deficient embryonic fibroblasts were transfected with vector only or a vector encoding a Bcl2L12 polypeptide or Bcl2 polypeptide. Once the cells were transfected, the number of colonies formed in cultures (about 300 cells per 6 well plate) was determined. Expression of Bcl2L12 polypeptide promoted growth of Ink4a/Arf deficient embryonic fibroblasts. […] Once the cells were transfected, the number of foci formed per transfection was determined. […]

caspase-9 activity (caspase-9) | Molecule | number of colonies [1] | growth / proliferation under normal growth conditions [2] | annexin-V positive cells [3] | RAS-induced focus formation increase [4]
– | Bcl2: Bcl2 polypeptide expressed from control expression vector [reference compound] | about 10 colonies | failed to exhibit a pro-proliferative response | 2-3% | –
about 130 RFUs | B1 | – | – | – | –
– | B2 | – | moderate increase in proliferation | 10-20% | did not exhibit any cooperative activity
about 160 RFUs | B3 | – | – | – | –
– | B4 | – | failed to exhibit a pro-proliferative response | 14-16% | did not exhibit any cooperative activity
